The results in this text go back to patent US20160159888A1 (CANCER RESEARCH TECHNOLOGY, published 2016).

By Kd is commonly meant the constant that tells how readily two partners part at equilibrium. As usually defined, the kon is the second-order rate constant of association.

For experiment [1], the target named is T1, recombinant S100A4 protein (species not stated for the experiment).
T1 construct: also called immobilized S100A4; oligomeric S100A4
As to the kind of experiment: SPR (BIAcore 2000), S100A4 amine-coupled to CM5 chip, mAb injected, 1:1 fit. As to the method: All SPR analyses were conducted on a BIAcore 2000 system (GE-Healthcare Life Sciences, Upsala, Sweden). The experiments were performed at 25° C. using HBST/Ca (10 mM HEPES, 150 mM NaCl, 0.005% Tween® and 50 μM CaCl2) as running buffer. The S100A4 protein was immobilized on a sensor chip CM5 (GE-Healthcare, BR-1000-12) using the amine coupling kit from GE Healthcare (BR-1000-50). The flow rate was set to 5 μl/min. The flow cells were activated individually by injecting 35 μl freshly mixed 0.4 M EDC ((N-(3-dimethylaminopropyl)-N′-ethylcarbodiimide hydrochloride) in 0.05 M NHS (N-hydroxysuccinimide) solution. Then 5 μg/ml S100A4 protein diluted in 10 mM acetic acid, pH 5.0 was injected for 1 to 10 minutes until the desired level of immobilization was reached (about 400 to 800 RU). The remaining active groups were deactivated by injecting 35 μl 1 M ethanolamine (pH 8.5). All experiment included a reference surface which was prepared by activating and deactivating of the surface of flow cell 1 (FC1). The blank surface reference was used to correct for bulk effects and nonspecific binding. The channel referencing was done automatically by the BIACORE 2000 control software.
The injections were performed using the KINJECT mode (injection10 min, dissociation 20-30 min). The flow rate during injection and regeneration was kept at 50 μl/min. […]

For the next experiment, the target named is T2, mouse S100A4 protein (mouse, UniProt P07091 2-101, limits assumed).
T2 construct: also called murine S100A4; recombinant mouse S100A4 protein
Put plainly: ELISA screen of hybridoma clones on mouse S100A4.

A further experiment has as its target T3, human S100A4 protein (human, UniProt P26447 2-101, limits assumed).
T3 construct: Recombinant protein on blots and endogenous protein in extracts of human cell lines; also called human S100A4 recombinant protein
As to the kind of experiment: Western blot of recombinant proteins and of cell extracts (FIG. 1). (Immunoblotting shows a protein as a band on a membrane.)

The target in experiment [2] is T4, S100A4 peptide 8 (FLSCIAMMCNEF, 12-mer: 78-89) (human).
T4 construct: also called P8
T4 peptide: FLSCIAMMCNEF
As to the kind of experiment: peptide ELISA (FIG. 4A).

Experiment [3] concerns the target T5, S100A4 peptide 7 (RDNEVDFQEYCV, 12-mer: 66-77) (human).
T5 construct: also called P7
T5 peptide: RDNEVDFQEYCV
As to the kind of experiment: peptide ELISA (FIG. 4A).

The target of the next experiment is T6, pep 3.
T6 construct: also called S100A4 peptide 3; #3 (11-mer: 21-31)
T6 chain: GKEGDKFKLNK
Put plainly: peptide ELISA, absorbance 450 nm (Pep-BG).

A further experiment addresses T7, pep 2.
T7 construct: also called S100A4 peptide 2; #2 (10-mer: 11-20)
T7 chain: VMVSTFHKYS
As to the kind of experiment: peptide ELISA, absorbance 450 nm (Pep-BG).

Another experiment addresses T8, pep 1.
T8 construct: also called S100A4 peptide 1; #1 (10-mer: 1-10)
T8 chain: MACPLEKALD
As to the kind of experiment: peptide ELISA, absorbance 450 nm (Pep-BG). In general terms: ELISA stands for enzyme-linked immunosorbent assay.

In experiment [4] the target is T9, S100A4 peptide 9 (FEGFPDKQPRKK, 12-mer: 90-101) (human).
T9 construct: also called P9; C-terminal peptide
T9 peptide: FEGFPDKQPRKK
Put plainly: peptide ELISA, absorbance 450 nm (Pep-BG).

Another experiment deals with T10, pep 5.
T10 construct: also called S100A4 peptide 5; #5 (11-mer: 43-53)
T10 chain: PSFLGKRTDEA
As to the kind of experiment: peptide ELISA, absorbance 450 nm (Pep-BG).

Another experiment has as its target T11, pep 6.
T11 construct: also called S100A4 peptide 6; #6 (12-mer: 54-65)
T11 chain: AFQKLMSNLDSN
Put plainly: peptide ELISA, absorbance 450 nm (Pep-BG).

A further experiment deals with T12, pep 4.
T12 construct: also called S100A4 peptide 4; #4 (11-mer: 32-42)
T12 chain: SELKELLTREL
As to the kind of experiment: peptide ELISA, absorbance 450 nm (Pep-BG).

Another experiment deals with T13, h S100A12 (human, UniProt P80511).
T13 construct: purified protein on a PVDF membrane; one of the 'other S100 family members'; no amido black loading band is visible for this lane in the scan; also called human S100A12
T13 sequence (looked up): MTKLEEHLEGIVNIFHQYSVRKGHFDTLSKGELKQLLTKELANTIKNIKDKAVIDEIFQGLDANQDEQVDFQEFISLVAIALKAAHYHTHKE
Put plainly: Western blot of purified S100 proteins on PVDF membrane.

In another experiment the target is T14, h S100A9 (human, UniProt P06702).
T14 construct: purified protein on a PVDF membrane; one of the 'other S100 family members'; also called human S100A9
T14 sequence (looked up): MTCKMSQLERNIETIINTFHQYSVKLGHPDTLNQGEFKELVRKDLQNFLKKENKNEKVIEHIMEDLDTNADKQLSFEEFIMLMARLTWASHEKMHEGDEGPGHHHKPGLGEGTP
The description is as above.

A further experiment has as its target T15, h S100B (human, UniProt P04271).
T15 construct: purified protein on a PVDF membrane; one of the 'other S100 family members'; also called human S100B
T15 sequence (looked up): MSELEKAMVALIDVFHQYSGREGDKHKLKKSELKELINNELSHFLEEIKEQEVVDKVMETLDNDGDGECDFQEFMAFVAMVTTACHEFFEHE
Described as above.

In the next experiment the target is T16, h S100A2 (human, UniProt P29034).
T16 construct: purified protein on a PVDF membrane; one of the 'other S100 family members'; its amido black loading band is very faint in the scan; also called human S100A2
Described as above.

For another experiment, the target named is T17, h S100A5 (human, UniProt P33763).
T17 construct: purified protein on a PVDF membrane; one of the 'other S100 family members'; also called human S100A5
T17 sequence (looked up): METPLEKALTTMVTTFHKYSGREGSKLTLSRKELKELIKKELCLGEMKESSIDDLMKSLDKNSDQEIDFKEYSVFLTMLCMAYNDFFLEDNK
The experiment is described as above.

Another experiment deals with T18, h S100A1 (human, UniProt P23297).
T18 construct: purified protein on a PVDF membrane; one of the 'other S100 family members'; also called human S100A1
T18 sequence (looked up): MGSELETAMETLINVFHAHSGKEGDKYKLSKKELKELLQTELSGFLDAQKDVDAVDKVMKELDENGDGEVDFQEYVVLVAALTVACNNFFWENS
The description is as above.

T1 sequence (P07091 whole entry): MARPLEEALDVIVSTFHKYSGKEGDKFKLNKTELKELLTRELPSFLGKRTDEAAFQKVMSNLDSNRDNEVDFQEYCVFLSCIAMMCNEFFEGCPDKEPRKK
T2 sequence (P07091 2-101 limits assumed, one chain of several): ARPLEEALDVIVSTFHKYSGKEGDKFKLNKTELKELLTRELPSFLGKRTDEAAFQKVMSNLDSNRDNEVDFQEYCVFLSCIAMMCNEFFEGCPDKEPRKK
T3 sequence (P26447 2-101 limits assumed, one chain of several): as the sequence (P07091 2-101 limits assumed, one chain of several) above, with R2C, E6K, I11M, T31S, V57L, C92F, E96Q counted along it
T16 sequence (P29034 whole entry, one chain of several): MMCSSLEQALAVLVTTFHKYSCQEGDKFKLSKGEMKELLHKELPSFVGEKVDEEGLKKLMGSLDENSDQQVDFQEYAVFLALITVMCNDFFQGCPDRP

B1: anti-S100A4 mouse monoclonal antibody, clone 6B12 (antibody, V domains shown)
VH: DVQLQESGPGLVKPSQSLSLTCSVTGDSFTNDYYWNWIRQFPGSKLEWMGHIGYGGNINYNPSLKNRISITRDTSKNQFFLRLTSVTTEDTATYYCTRESFYDGYPFDYWGQGTLVTVSA
VL: DIQMTQTTSSLSASLGDRVTISCRASQDIRNYLNWYQQRPGGTLKLLIYYTSRLHSGVPSRFSGSGSGTDYSLTISNLEQEDIATYFCQQGNSLPRTFGGGTKLEIK
notes: constant regions are not; also called 6B12 mAb; mAb 6B12
Regarding B1, the Kd in [1] stood at 0.114 nM. Moreover, in experiment [1], the kon came to 287000 M⁻¹ s⁻¹. Also, the binding result with mouse S100A4 protein is “binds”; with human S100A4 protein, “binds”; in experiment [2], “binds”; in [3] it was “binds”; in the experiment with pep 3 it was “no binding”; with pep 2 it was “no binding”. The binding result (in the experiment with pep 1; in experiment [4]; in the experiment with pep 5; in the experiment with pep 6; with pep 4; with h S100A12) was “no binding” in each case. In addition, the binding result in the experiment with h S100A9, with h S100B, with h S100A2, in the experiment with h S100A5 and in the experiment with h S100A1 was “no binding” each time.
